# Results reported in patent US20220242936A1 (CHANGCHUN GENESCIENCE PHARMACEUTICAL, published 2022).
# Where a chain is given by its changes, count along the chain named. Where no end group is shown, it is not given here.
# B1: 066-4.26.14H1L2 (antibody, human IgG1, V domains shown)
# VH: EVQLVESGGGLVKPGGSLRLSCAASGFTFRSYAMSWVRQAPGKGLEWVASISTTSNTYYPDSVKGRFTTSRDNAKNSLYLQMNSLRAEDTAVYYCGRGVITNQAWFAYWGQGTLVTVSS
# VL: DIVLTQSPATLSVSPGERATLSCRASQSISNNLHWYQQKPGQAPRLLIKYASQSISGIPARFSGSGSGTDFTLTISSLQSEDFAVYFCQQSNSWPLTFGGGTKVEIKR
# notes: Humanized full-length antibody; human IgG1 heavy constant and human kappa light constant (vectors pGS003-hIgG1CH, pGS003-hIgKCL)
# B2: 066-4.26.14H1L3 (antibody, human IgG1, V domains shown)
# VH: B1 VH
# VL: DIVLTQSPDFQSVTPKEKVTISCRASQSISNNLHWYQQKPDQSPKLLIKYASQSISGIPSRFSGSGSGTDFTLTINSLEAEDAAAYFCQQSNSWPLTFGPGTKVEIKR
# notes: as for B1
# B3: 066-4.26.14H2L5 (antibody, human IgG1, kappa, V domains shown)
# VH: B1 VH with A40T, G42E, G44R, L78V, N83S, L114T
# VL: B2 VL with D1E, S22T, I58V, A85T, F87Y, P100Q
# notes: as for B1
# B4: 066-4.26.14H1L4 (antibody, human IgG1, V domains shown)
# VH: B1 VH
# VL: B1 VL with D1E, A9G, V13L, A60D, S77R, Q79E, S80P, F87Y
# notes: as for B1
# B5: 066-4.26.14H1L1 (antibody, human IgG1, V domains shown)
# VH: B1 VH
# VL: B1 VL with A19V, P40S, A60S, K103Q
# notes: as for B1
# B6: 066-4.26.14H1L5 (antibody, human IgG1, V domains shown)
# VH: B1 VH
# VL: B2 VL with D1E, S22T, I58V, A85T, F87Y, P100Q
# notes: as for B1
# B7: 066-4.26.14 (antibody, V domains shown)
# VH: EVKLVESGGGLVKPGGSLKLSCAASGFTFRSYAMSWVRQTPEKRLEWVASISTTSNTYYPDSVKGRFTTSRDNARNIVYLQMSSLRSDDTAMYYCGRGVITNQAWFAYWGQGTLVTVSA
# VL: DIVLTQSPATLSVTPGDSVSLSCRASQSISNNLHWYQQKSHESPRLLIKYASQSISGIPSRFSGSGSGTDFTLSVNNVGTEDFGMYFCQQSNSWPLTFGAGTKLELK
# notes: Murine hybridoma antibody
# B8: 066-4.26.14H2L4 (antibody, human IgG1, kappa, V domains shown)
# VH: B1 VH with A40T, G42E, G44R, L78V, N83S, L114T
# VL: B1 VL with D1E, A9G, V13L, A60D, S77R, Q79E, S80P, F87Y
# notes: as for B1
# How the values were obtained:
# Aβ1-42 polypeptide [1] = target: T1, Aβ1-42 polypeptide (human); assay: ELISA EC50 on Aβ42 monomer, 2 ml transient transfection; table note: '-' means no combination; expression 61 mg/L
# T1 construct: Synthetic peptide; also called Aβ1-42 monomer; Aβ monomer
# Aβ1-42 polypeptide [2] = target: T1, Aβ1-42 polypeptide; assay: ELISA EC50 on Aβ42 monomer, 2 ml transient transfection; table note: '-' means no combination; expression 68.2 mg/L
# Aβ1-42 polypeptide [3] = target: T1, Aβ1-42 polypeptide; assay: ELISA EC50 on Aβ42 monomer, 2 ml transient transfection; table note: '-' means no combination; expression 6.14 mg/L
# Aβ1-42 polypeptide [4] = target: T1, Aβ1-42 polypeptide; assay: ELISA EC50 on Aβ42 monomer, 2 ml transient transfection; table note: '-' means no combination; expression 32.1 mg/L
# Aβ1-42 polypeptide [5] = target: T1, Aβ1-42 polypeptide; assay: ELISA EC50 on Aβ42 monomer, 2 ml transient transfection; table note: '-' means no combination; expression 60 mg/L
# Aβ1-42 polypeptide [6] = target: T1, Aβ1-42 polypeptide; assay: ELISA EC50 on Aβ42 monomer, 2 ml transient transfection; table note: '-' means no combination; expression 68.4 mg/L
# [7] = target: T2, biotinylated Aβ1-16 polypeptide (also: biotinylated (site not given here)); assay: ELISA, hybridoma supernatant on biotinylated peptide captured by streptavidin
# T2 construct: also called Aβ1-16 (N-terminal peptide fragment)
# T2 peptide: DAEFRHDSGYEVHHQK
# Procedure: (§1) Detection: After stopping the reaction, the microtiter plate was immediately placed into a microplate reader, the OD value was measured at 450 nm, and the original data was stored.
# (§2) Data processing: The raw data were input into the software SoftMax Pro 6.2.1 for data processing.
# [8] = target: T3, biotinylated Aβ14-29 polypeptide (biotinylated (site not stated)); assay: as above
# T3 construct: also called Aβ14-29 (middle peptide fragment)
# Procedure: as §1, §2
# [9] = target: T4, biotinylated Aβ1-42 polypeptide (human, biotinylated (site not stated)); assay: as above
# T4 construct: also called Full length Aβ1-42
# Procedure: as §1, §2
# Aβ1-42 polypeptide [10] = target: T1, Aβ1-42 polypeptide; assay: cell-based or functional assay
# [11] = target: T2, biotinylated Aβ1-16 polypeptide; assay: ELISA, biotinylated peptide on streptavidin plate
# Procedure: as §1, §2
# [12] = target: T3, biotinylated Aβ14-29 polypeptide; assay: ELISA, biotinylated peptide on streptavidin plate
# Procedure: as §1, §2
# Aβ1-42 polypeptide [13] = target: T1, Aβ1-42 polypeptide; assay: ELISA EC50 on Aβ42 monomer, 2 ml transient transfection; table note: '-' means no combination; expression 7.72 mg/L
# T1 sequence (peptide, as listed by the source): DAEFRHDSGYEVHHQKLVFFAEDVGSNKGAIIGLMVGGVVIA
# T4 sequence (peptide, as listed by the source): as above
binder,measurement,setting,value
B1,binding result,Aβ1-42 polypeptide [1],no binding
B2,binding result,Aβ1-42 polypeptide [2],no binding
B3,binding result,Aβ1-42 polypeptide [3],no binding
B4,binding result,Aβ1-42 polypeptide [4],no binding
B5,binding result,Aβ1-42 polypeptide [5],no binding
B6,binding result,Aβ1-42 polypeptide [6],no binding
B7,OD value at 450 nm,[7],0.0602 OD
same,OD value at 450 nm,[8],0.0674 OD
same,OD value at 450 nm,[9],1.93 OD
same,"relative fluorescence intensity (ThT, Aβ polymerization; PBS group = 1.0)",Aβ1-42 polypeptide [10],0.46 relative to PBS group
same,"relative fluorescence intensity (ThT, Aβ polymerization; hIgG = 1.00)",Aβ1-42 polypeptide [10],0.7 relative to hIgG
same,relative value of LDH release (SHSY5Y cells with Aβ; Vehicle group = 1.0),Aβ1-42 polypeptide [10],1.2 relative to Vehicle group
same,relative value of LDH release (SHSY5Y cells with Aβ; hIgG = 1.00),Aβ1-42 polypeptide [10],1.2 relative to hIgG
same,binding result,[11],no binding
same,binding result,[12],no binding
B8,binding result,Aβ1-42 polypeptide [13],no binding
